Measured values from US20250171558A1 (published 2025).
Blank lines part the entries; values can stand above or below the binder they belong to.

What was measured:
Test in all cases: SPR; human
human FcγRIIB = target: T1, human FcγRIIB (human, UniProt P31994 43-217)
T1 chain: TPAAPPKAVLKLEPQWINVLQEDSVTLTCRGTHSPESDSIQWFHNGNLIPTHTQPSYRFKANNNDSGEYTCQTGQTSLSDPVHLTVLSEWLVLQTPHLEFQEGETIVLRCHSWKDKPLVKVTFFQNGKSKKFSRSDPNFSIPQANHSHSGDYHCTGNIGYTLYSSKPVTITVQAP

Afucosylated = target: Afucosylated
SDIE = target: SDIE

Kd (human FcγRIIB): 19.6 µM
B1: GAALIE (protein)
chain: ASTKGPSVFPLAPSSKSTSGGTAALGCLVKDYFPEPVTVSWNSGALTSGVHTFPAVLQSSGLYSLSSVVTVPSSSLGTQTYICNVNHKPSNTKVDKRVEPKSCDKTHTCPPCPAPELLAGPSVFLFPPKPKDTLMISRTPEVTCVVVDVSHEDPEVKFNWYVDGVEVHNAKTKPREEQYNSTYRVVSVLTVLHQDWLNGKEYKCKVSNKALPLPEEKTISKAKGQPREPQVYTLPPSREEMTKNQVSLTCLVKGFYPSDIAVEWESNGQPENNYKTTPPVLDSDGSFFLYSKLTVDKSRWQQGNVFSCSVMHEALHNHYTQKSLSLSPGK

Kd (Afucosylated): 5.88 µM | Kd (SDIE): 0.665 µM
B2: FcγRIIb (receptor)
chain: T1 chain
